B1: Mouse syndecan-4 (full length) overexpressed in CHO-KI cells (other)
chain: ESIRETEVIDPQDLLEGRYFSGALPDDEDAGGSDDFELSGSGDLDDTEEPRPFPEVIEPLVPLDNHIPENAQPGIRVPSEPKELEENEVIPKRAPSDVGDDMSNKVSMSSTVQGSNIFERTEVLAALIVGGVVGILFAVFLILLLVYRMKKKDEGSYDLGKKPIYKKAPTNEFYA
modifications: heparan sulfate chains

Columns and labels:
[1] = target: Soluble FGFR2-alkaline phosphatase fusion protein (FR2-AP) (human) (UniProt P05187); test: FGF on Syn4-Fc, FGFR-AP; alkaline phosphatase activity and cross-linking of the receptors to radio-labeled bFGF
Recombinant human FGF2 = Recombinant human FGF2 (human, UniProt P09038, 125I label in the FIG. 1 assay and in the FGFR2-AP direct binding assay); test: immunoprecipitation with anti-P710, incubation with 50 ng FGF2, FB-8 immunoblot

| Molecule | fold less than with FGFR1 [1] | fold more FGF2 bound than syndecan-4 from the CHO-KI parental cells (Recombinant human FGF2) |
| --- | --- | --- |
| Recombinant human FGF2 (from UniProt P09038) (ligand) | 2 fold less | – |
| B1 | – | ~3 fold |

— patent US20030100492A1, “Proteoglycans and pharmaceutical compositions comprising them” (published 2003)
